Residue numbers refer to the chain shown, from its start. Names may count otherwise.
B1: SaCas9 T787A: SaCas9 phosphate lock loop mutant (protein, UniProt J7RUA5 1-1053, looked up, variant T787A)
CRISPR-associated …: MKRNYILGLDIGITSVGYGIIDYETRDVIDAGVRLFKEANVENNEGRRSKRGARRLKRRRRHRIQRVKKLLFDYNLLTDHSELSGINPYEARVKGLSQKLSEEEFSAALLHLAKRRGVHNVNEVEEDTGNELSTKEQISRNSKALEEKYVAELQLERLKKDGEVRGSINRFKTSDYVKEAKQLLKVQKAYHQLDQSFIDTYIDLLETRRTYYEGPGEGSPFGWKDIKEWYEMLMGHCTYFPEELRSVKYAYNADLYNALNDLNNLVITRDENEKLEYYEKFQIIENVFKQKKKPTLKQIAKEILVNEEDIKGYRVTSTGKPEFTNLKVYHDIKDITARKEIIENAELLDQIAKILTIYQSSEDIQEELTNLNSELTQEEIEQISNLKGYTGTHNLSLKAINLILDELWHTNDNQIAIFNRLKLVPKKVDLSQQKEIPTTLVDDFILSPVVKRSFIQSIKVINAIIKKYGLPNDIIIELAREKNSKDAQKMINEMQKRNRQTNERIEEIIRTTGKENAKYLIEKIKLHDMQEGKCLYSLEAIPLEDLLNNPFNYEVDHIIPRSVSFDNSFNNKVLVKQEENSKKGNRTPFQYLSSSDSKISYETFKKHILNLAKGKGRISKTKKEYLLEERDINRFSVQKDFINRNLVDTRYATRGLMNLLRSYFRVNNLDVKVKSINGGFTSFLRRKWKFKKERNKGYKHHAEDALIIANADFIFKEWKKLDKAKKVMENQMFEEKQAESMPEIETEQEYKEIFITPHQIKHIKDFKDYKYSHRVDKKPNRELINDALYSTRKDDKGNTLIVNNLNGLYDKDNDKLKKLINKSPEKLLMYHHDPQTYQKLKLIMEQYGDEKNPLYKYYEETGNYLTKYSKKDNGPVIKKIKYYGNKLNAHLDITDDYPNSRNKVVKLSLKPYRFDVYLDNGVYKFVTVKNLDVIKKENYYEVNSKCYEEAKKLKKISNQAEFIASFYNNDLIKINGELYRVIGVNNDLLNRIEVNMIDITYREYLENMNDKRPPRIIKTIASKTQSIKKYSTDILGNLYEVKSKKHPQIIKKG
B2: D704A: SaCas9 RuvC catalytic residue mutant (protein, UniProt J7RUA5 1-1053, looked up, variant D704A)
CRISPR-associated …: B1 CRISPR-associated … with D704A, A787T
B3: D556A: SaCas9 HNH catalytic residue mutant (protein, UniProt J7RUA5 1-1053, looked up, variant D556A)
CRISPR-associated …: B1 CRISPR-associated … with D556A, A787T
B4: H557A: SaCas9 HNH catalytic residue mutant (protein, UniProt J7RUA5 1-1053, looked up, variant H557A)
CRISPR-associated …: B1 CRISPR-associated … with H557A, A787T
B5: E477A: SaCas9 RuvC catalytic residue mutant (protein, UniProt J7RUA5 1-1053, looked up, variant E477A)
CRISPR-associated …: B1 CRISPR-associated … with E477A, A787T
B6: N580A: SaCas9 HNH catalytic residue mutant (protein, UniProt J7RUA5 1-1053, looked up, variant N580A)
CRISPR-associated …: B1 CRISPR-associated … with N580A, A787T
B7: D10A: SaCas9 RuvC catalytic residue mutant (protein, UniProt J7RUA5 1-1053, looked up, variant D10A)
CRISPR-associated …: B1 CRISPR-associated … with D10A, A787T
B8: H701A: SaCas9 RuvC catalytic residue mutant (protein, UniProt J7RUA5 1-1053, looked up, variant H701A)
CRISPR-associated …: B1 CRISPR-associated … with H701A, A787T

Test system: NHEJ pathway
Test: HiBiT assay of HDR enhancement by small-molecule NHEJ pathway inhibitors
Type: cell-based
Conditions: not given

Molecule	HDR enhancement in the HiBiT assay
O=c1cc(N2CCOCC2)oc2c(-c3cccc4c3sc3ccccc34)cccc12 [KU-57788]	enhanced HDR enhancement
CCN1CCN(CC(=O)Nc2ccc(-c3cccc4c(=O)cc(N5CCOCC5)oc34)c3sc4ccccc4c23)CC1 [KU-0060648]	enhanced HDR enhancement

Test system: target DNA
Test: not given
Conditions: SaCas9 mutants; cited from earlier work

Molecule	DNA cleavage activity, in words
B1	reduced DNA cleavage activity
B2	almost no DNA cleavage activities
B3	almost no DNA cleavage activities
B4	almost no DNA cleavage activities
B5	almost no DNA cleavage activities
B6	almost no DNA cleavage activities
B7	almost no DNA cleavage activities
B8	almost no DNA cleavage activities

From US20220162649A1, “NOVEL NUCLEIC ACID MODIFIERS” (THE BROAD INSTITUTE, INC., priority 2019, published 2022)
